# According to US20260217779A1 (Chugai, published 2026):
# T1: human CXCR3 (hCXCR3) on Ba/F3 transfectant cells (human, UniProt P49682 1-368)
# T1 sequence: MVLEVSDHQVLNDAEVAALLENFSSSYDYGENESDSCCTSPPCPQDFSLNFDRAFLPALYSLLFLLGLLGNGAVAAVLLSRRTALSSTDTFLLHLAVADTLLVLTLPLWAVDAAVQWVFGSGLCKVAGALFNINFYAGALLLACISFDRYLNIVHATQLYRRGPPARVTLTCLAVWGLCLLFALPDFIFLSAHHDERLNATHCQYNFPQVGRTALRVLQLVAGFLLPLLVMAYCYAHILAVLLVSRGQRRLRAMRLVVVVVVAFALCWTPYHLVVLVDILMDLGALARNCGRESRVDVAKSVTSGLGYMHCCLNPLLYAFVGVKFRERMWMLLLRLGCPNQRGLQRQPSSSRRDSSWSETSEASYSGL
# Target: T1, human CXCR3 (hCXCR3) on Ba/F3 …
# Assay: cell-based or functional assay
Activity retention rate at 33 nM,Activity retention rate at 100 nM,Activity retention rate at 300 nM,Luminescence value at 33 nM,Luminescence value at 100 nM,Luminescence value at 300 nM,Binder
7%,30%,63%,524000,4.93e+06,7.78e+06,hCXCL11.0010-G1T4k.one//VHn-G1T4h.one.H435R (Fc fusion) chain 1: FKMFKRGRCLCIGPGVKAVKVADIEKASIMYPSNNCDKIEVIITLKENKGQRCLNPKSKQARLIIKKVERKNFEPKSSDKTHTCPPCPAPELRRGPSVFLFPPKPKDTLMISRTPEVTCVVVDVSHEDPEVKFNWYVDGVEVHNAKTKPREEQYNSTYRVVSVLTVLHQDWLNGKEYKCKVSNKGLPSSIEKTISKAKGQPREPQVCTLPPSREEMTKNQVSLWCLVKGFYPSDIAVEWESNGQPENNYKTTPPVLDSDGSFFLYSKLTVDKSRWQEGNVFSCSVMHEALHNHYTQKSLSLSP chain 2: EPKSSDKTHTCPPCPAPELRRGPSVFLFPPKPKDTLMISRTPEVTCVVVDVSHEDPEVKFNWYVDGVEVHNAKTKPREEQYNSTYRVVSVLTVLHQDWLNGKEYKCKVSNKGLPSSIEKTISKAKGQPREPQVYTLPPSRCEMTKNQVSLSCAVKGFYPSDIAVEWESNGQPENNYKTTPPVLDSDGSFFLVSKLTVDKSRWQEGNVFSCSVMHEALHNRYTQKSLSLSP
17%,46%,95%,1.33e+06,7.6e+06,1.18e+07,hCXCL11.0012-G1T4k.one//VHn-G1T4h.one.H435R (Fc fusion) chain 1: FMMFKRGRCLCIGPGVKAVKVADIEKASIMYPSNNCDKIEVIITLKENKGQRCLNPKSKQARLIIKKVERKNFEPKSSDKTHTCPPCPAPELRRGPSVFLFPPKPKDTLMISRTPEVTCVVVDVSHEDPEVKFNWYVDGVEVHNAKTKPREEQYNSTYRVVSVLTVLHQDWLNGKEYKCKVSNKGLPSSIEKTISKAKGQPREPQVCTLPPSREEMTKNQVSLWCLVKGFYPSDIAVEWESNGQPENNYKTTPPVLDSDGSFFLYSKLTVDKSRWQEGNVFSCSVMHEALHNHYTQKSLSLSP chain 2: EPKSSDKTHTCPPCPAPELRRGPSVFLFPPKPKDTLMISRTPEVTCVVVDVSHEDPEVKFNWYVDGVEVHNAKTKPREEQYNSTYRVVSVLTVLHQDWLNGKEYKCKVSNKGLPSSIEKTISKAKGQPREPQVYTLPPSRCEMTKNQVSLSCAVKGFYPSDIAVEWESNGQPENNYKTTPPVLDSDGSFFLVSKLTVDKSRWQEGNVFSCSVMHEALHNRYTQKSLSLSP
71%,78%,81%,5.49e+06,1.31e+07,1.01e+07,hCXCL11.0013-G1T4k.one//VHn-G1T4h.one.H435R (Fc fusion) chain 1: FNMFKRGRCLCIGPGVKAVKVADIEKASIMYPSNNCDKIEVIITLKENKGQRCLNPKSKQARLIIKKVERKNFEPKSSDKTHTCPPCPAPELRRGPSVFLFPPKPKDTLMISRTPEVTCVVVDVSHEDPEVKFNWYVDGVEVHNAKTKPREEQYNSTYRVVSVLTVLHQDWLNGKEYKCKVSNKGLPSSIEKTISKAKGQPREPQVCTLPPSREEMTKNQVSLWCLVKGFYPSDIAVEWESNGQPENNYKTTPPVLDSDGSFFLYSKLTVDKSRWQEGNVFSCSVMHEALHNHYTQKSLSLSP chain 2: EPKSSDKTHTCPPCPAPELRRGPSVFLFPPKPKDTLMISRTPEVTCVVVDVSHEDPEVKFNWYVDGVEVHNAKTKPREEQYNSTYRVVSVLTVLHQDWLNGKEYKCKVSNKGLPSSIEKTISKAKGQPREPQVYTLPPSRCEMTKNQVSLSCAVKGFYPSDIAVEWESNGQPENNYKTTPPVLDSDGSFFLVSKLTVDKSRWQEGNVFSCSVMHEALHNRYTQKSLSLSP
34%,73%,98%,2.62e+06,1.23e+07,1.22e+07,hCXCL11.0015-G1T4k.one//VHn-G1T4h.one.H435R (Fc fusion) chain 1: FRMFKRGRCLCIGPGVKAVKVADIEKASIMYPSNNCDKIEVIITLKENKGQRCLNPKSKQARLIIKKVERKNFEPKSSDKTHTCPPCPAPELRRGPSVFLFPPKPKDTLMISRTPEVTCVVVDVSHEDPEVKFNWYVDGVEVHNAKTKPREEQYNSTYRVVSVLTVLHQDWLNGKEYKCKVSNKGLPSSIEKTISKAKGQPREPQVCTLPPSREEMTKNQVSLWCLVKGFYPSDIAVEWESNGQPENNYKTTPPVLDSDGSFFLYSKLTVDKSRWQEGNVFSCSVMHEALHNHYTQKSLSLSP chain 2: EPKSSDKTHTCPPCPAPELRRGPSVFLFPPKPKDTLMISRTPEVTCVVVDVSHEDPEVKFNWYVDGVEVHNAKTKPREEQYNSTYRVVSVLTVLHQDWLNGKEYKCKVSNKGLPSSIEKTISKAKGQPREPQVYTLPPSRCEMTKNQVSLSCAVKGFYPSDIAVEWESNGQPENNYKTTPPVLDSDGSFFLVSKLTVDKSRWQEGNVFSCSVMHEALHNRYTQKSLSLSP
3%,24%,77%,262000,4.02e+06,9.6e+06,hCXCL11.0011-G1T4k.one//VHn-G1T4h.one.H435R (Fc fusion) chain 1: FLMFKRGRCLCIGPGVKAVKVADIEKASIMYPSNNCDKIEVIITLKENKGQRCLNPKSKQARLIIKKVERKNFEPKSSDKTHTCPPCPAPELRRGPSVFLFPPKPKDTLMISRTPEVTCVVVDVSHEDPEVKFNWYVDGVEVHNAKTKPREEQYNSTYRVVSVLTVLHQDWLNGKEYKCKVSNKGLPSSIEKTISKAKGQPREPQVCTLPPSREEMTKNQVSLWCLVKGFYPSDIAVEWESNGQPENNYKTTPPVLDSDGSFFLYSKLTVDKSRWQEGNVFSCSVMHEALHNHYTQKSLSLSP chain 2: EPKSSDKTHTCPPCPAPELRRGPSVFLFPPKPKDTLMISRTPEVTCVVVDVSHEDPEVKFNWYVDGVEVHNAKTKPREEQYNSTYRVVSVLTVLHQDWLNGKEYKCKVSNKGLPSSIEKTISKAKGQPREPQVYTLPPSRCEMTKNQVSLSCAVKGFYPSDIAVEWESNGQPENNYKTTPPVLDSDGSFFLVSKLTVDKSRWQEGNVFSCSVMHEALHNRYTQKSLSLSP
105%,89%,60%,8.07e+06,1.48e+07,7.51e+06,hCXCL11.0014-G1T4k.one//VHn-G1T4h.one.H435R (Fc fusion) chain 1: FQMFKRGRCLCIGPGVKAVKVADIEKASIMYPSNNCDKIEVIITLKENKGQRCLNPKSKQARLIIKKVERKNFEPKSSDKTHTCPPCPAPELRRGPSVFLFPPKPKDTLMISRTPEVTCVVVDVSHEDPEVKFNWYVDGVEVHNAKTKPREEQYNSTYRVVSVLTVLHQDWLNGKEYKCKVSNKGLPSSIEKTISKAKGQPREPQVCTLPPSREEMTKNQVSLWCLVKGFYPSDIAVEWESNGQPENNYKTTPPVLDSDGSFFLYSKLTVDKSRWQEGNVFSCSVMHEALHNHYTQKSLSLSP chain 2: EPKSSDKTHTCPPCPAPELRRGPSVFLFPPKPKDTLMISRTPEVTCVVVDVSHEDPEVKFNWYVDGVEVHNAKTKPREEQYNSTYRVVSVLTVLHQDWLNGKEYKCKVSNKGLPSSIEKTISKAKGQPREPQVYTLPPSRCEMTKNQVSLSCAVKGFYPSDIAVEWESNGQPENNYKTTPPVLDSDGSFFLVSKLTVDKSRWQEGNVFSCSVMHEALHNRYTQKSLSLSP
